# Assay results published in patent US20210398607A1, “METHODS FOR DESIGNING ANTIBODY SMALL-MOLECULE CONJUGATES” (priority 2020, published 2021).
# Like-named read-outs stand apart in the source and are kept apart here.
# T1: mSA (monomeric streptavidin construct), wild type
# T1 construct: also called mSAWT
# T1 chain: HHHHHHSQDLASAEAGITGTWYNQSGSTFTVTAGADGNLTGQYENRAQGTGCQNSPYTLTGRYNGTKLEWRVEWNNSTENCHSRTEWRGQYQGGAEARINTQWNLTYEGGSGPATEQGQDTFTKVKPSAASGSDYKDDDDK
# T2: mSAS27A (mSA with single mutation S27A)
# T2 chain: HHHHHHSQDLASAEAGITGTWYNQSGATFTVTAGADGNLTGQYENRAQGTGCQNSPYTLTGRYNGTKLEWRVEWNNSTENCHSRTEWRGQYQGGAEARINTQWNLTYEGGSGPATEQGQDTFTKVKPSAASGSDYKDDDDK
# Key:
# mSA = settings: read-out: biotin/mSA affinity, fluorescence polarization spectroscopy, cited from earlier work
# [1] = biological target: T1, mSA (monomeric streptavidin construct), …; experiment: SPR, immobilized mSA
# [2] = biological target: T2, mSAS27A (mSA with single mutation S27A); experiment: SPR
# [3] = biological target: T1, mSA (monomeric streptavidin construct), …; experiment: SPR, 25 °C, immobilized mSA
# [4] = biological target: T2, mSAS27A (mSA with single mutation S27A); experiment: SPR; reference mSAS27A/biotin
# [5] = biological target: T1, mSA (monomeric streptavidin construct), …; experiment: SPR, 25 °C; reference mSA on immobilized biotin
# [6] = biological target: T1, mSA (monomeric streptavidin construct), …; experiment: SPR, conjugate injected at 1, 2.5, 5, 10, 20 nM over immobilized mSAWT; fit curve; replicate 2
# [7] = biological target: T1, mSA (monomeric streptavidin construct), …; experiment: SPR, conjugate injected at 1, 2.5, 5, 10, 20 nM over immobilized mSAWT; fit curve; replicate 3
# [8] = biological target: T1, mSA (monomeric streptavidin construct), …; experiment: SPR, conjugate injected at 1, 2.5, 5, 10, 20 nM over immobilized mSAWT; fit curve; one of three replicates
# [9] = biological target: T2, mSAS27A (mSA with single mutation S27A); experiment: SPR, conjugate injected at 62.5, 125, 250, 500 nM and 1 µM over immobilized mSAS27A; fit curve; one of three replicates
# [10] = biological target: T2, mSAS27A (mSA with single mutation S27A); experiment: SPR, conjugate injected at 62.5, 125, 250, 500 nM and 1 uM over immobilized mSAS27A; biological replicate 2; fit curve
# [11] = biological target: T2, mSAS27A (mSA with single mutation S27A); experiment: SPR, conjugate injected at 62.5, 125, 250, 500 nM and 1 uM over immobilized mSAS27A; biological replicate 3; fit curve
# [12] = biological target: T1, mSA (monomeric streptavidin construct), …; experiment: SPR
# [13] = biological target: T1, mSA (monomeric streptavidin construct), …; experiment: SPR; variant v119
# [14] = biological target: T1, mSA (monomeric streptavidin construct), …; experiment: SPR, conjugate injected at 0.5, 1, 2.5, 5, 10 nM over immobilized mSAWT; fit curve; replicate 2
# [15] = biological target: T1, mSA (monomeric streptavidin construct), …; experiment: SPR, conjugate injected at 0.5, 1, 2.5, 5, 10 nM over immobilized mSAWT; fit curve; replicate 3
# [16] = biological target: T1, mSA (monomeric streptavidin construct), …; experiment: SPR, conjugate injected at 0.5, 1, 2.5, 5, 10 nM over immobilized mSAWT; fit curve; one of three replicates
# [17] = biological target: T1, mSA (monomeric streptavidin construct), …; experiment: SPR; variant v149
# [18] = biological target: T1, mSA (monomeric streptavidin construct), …; experiment: SPR, conjugate injected at 0.5, 1, 2.5, 5, 10 nM over immobilized mSAWT; fit curve; replicate 2
# [19] = biological target: T1, mSA (monomeric streptavidin construct), …; experiment: SPR, conjugate injected at 0.5, 1, 2.5, 5, 10 nM over immobilized mSAWT; fit curve; replicate 3
# [20] = biological target: T1, mSA (monomeric streptavidin construct), …; experiment: SPR, conjugate injected at 0.5, 1, 2.5, 5, 10 nM over immobilized mSAWT; fit curve; one of three replicates
# [21] = biological target: T1, mSA (monomeric streptavidin construct), …; experiment: SPR, conjugate injected at 0.5, 1, 2.5, 5, 10 nM over immobilized mSAWT; fit curve; replicate 2
# [22] = biological target: T1, mSA (monomeric streptavidin construct), …; experiment: SPR, conjugate injected at 0.5, 1, 2.5, 5, 10 nM over immobilized mSAWT; fit curve; replicate 3
# [23] = biological target: T1, mSA (monomeric streptavidin construct), …; experiment: SPR, conjugate injected at 0.5, 1, 2.5, 5, 10 nM over immobilized mSAWT; fit curve; one of three replicates
# [24] = biological target: T2, mSAS27A (mSA with single mutation S27A); experiment: SPR, conjugate injected at 12.5, 25, 50, 100, 200 nM over immobilized mSAS27A; fit curve; one of three replicates
# [25] = biological target: T2, mSAS27A (mSA with single mutation S27A); experiment: SPR, conjugate injected at 12.5, 25, 50, 100 and 200 nM over immobilized mSAS27A; biological replicate 2; fit curve
# [26] = biological target: T2, mSAS27A (mSA with single mutation S27A); experiment: SPR, conjugate injected at 12.5, 25, 50, 100 and 200 nM over immobilized mSAS27A; biological replicate 3; fit curve
# [27] = biological target: T1, mSA (monomeric streptavidin construct), …; experiment: SPR, conjugate injected at 1, 2.5, 5, 10, 20 nM over immobilized mSAWT; fit curve; one of three replicates
# [28] = biological target: T1, mSA (monomeric streptavidin construct), …; experiment: SPR, conjugate injected at 1, 2.5, 5, 10, 20 nM; fit curve; replicate 2. The panel title prints 'against immobilized mSAS27A'; target taken as mSAWT after the legend of FIG. 6B and the matching data points of FIG. 6C
# [29] = biological target: T1, mSA (monomeric streptavidin construct), …; experiment: SPR, conjugate injected at 1, 2.5, 5, 10, 20 nM; fit curve; replicate 3. The panel title prints 'against immobilized mSAS27A'; target taken as mSAWT after the legend of FIG. 6B and the matching data points of FIG. 6C
# [30] = biological target: T1, mSA (monomeric streptavidin construct), …; experiment: SPR, conjugate injected at 1, 2.5, 5, 10, 20 nM; fit curve; replicate 2. The panel title prints 'against immobilized mSAS27A'; target taken as mSAWT after the legend of FIG. 6B (other two replicates against mSAWT are in FIG. 11) and the matching data points of FIG. 6C
molecule,measurement,setting,value
O=C(O)CCCC[C@@H]1SC[C@@H]2NC(=O)N[C@@H]21 [biotin],Kd,mSA; 4° C.,2.8 ± 0.5 nM
same,Kd,mSA; 37° C.,5.5 ± 0.2 nM
"4NBX.B nanobody, wild type (unconjugated) (VHH, also called Wildtype 4NBX.B; 4NBX.B WT) VHH: QVQLQESGGGLAQAGGSLRLSCAASGRTFSMDPMAWFRQPPGKEREFVAAGSSTGRTTYYADSVKGRFTISRDNAKNTVYLQMNSLKPEDTAVYYCAAAPYGANWYRDEYAYWGQGTQVTVSS",binding result,[1],no binding (tested: 100 nM)
"4NBX.B-biotin103 (VHH, also called 4NBX.B-biotin103 WT) VHH: QVQLQESGGGLAQAGGSLRLSCAASGRTFSMDPMAWFRQPPGKEREFVAAGSSTGRTTYYADSVKGRFTISRDNAKNTVYLQMNSLKPEDTAVYYCAAAPYGCNWYRDEYAYWGQGTQVTVSS",Kd,[2],245 nM
same,Kd,[3],1.8 nM
same,fold affinity improvement over biotin/mSAS27A,[4],5 fold
same,fold affinity improvement over biotin/mSA,[5],4 fold
same,Kd,[6],1.59 nM
same,koff,[6],0.00197 s⁻¹
same,kon,[6],1.24e+06 M⁻¹ s⁻¹
same,Kd,[7],1.92 nM
same,koff,[7],0.00225 s⁻¹
same,kon,[7],1.17e+06 M⁻¹ s⁻¹
same,Kd,[8],1.86 nM
same,koff,[8],0.00221 s⁻¹
same,kon,[8],1.19e+06 M⁻¹ s⁻¹
same,Kd,[9],279 nM
same,koff,[9],0.12 s⁻¹
same,kon,[9],430000 M⁻¹ s⁻¹
same,Kd,[10],269 nM
same,koff,[10],0.296 s⁻¹
same,kon,[10],1.1e+06 M⁻¹ s⁻¹
same,Kd,[11],188 nM
same,koff,[11],0.149 s⁻¹
same,kon,[11],790000 M⁻¹ s⁻¹
4NBX.B-biotin103 v119 (VHH) VHH: QVQLQESGGGLAQAGGSLRLSCAASGRTFSHAPMAWFRQPPGKEREFVAAGSSTGRTTYYADSVKGRFTISRDNAKNTVYLQMNSLKPEDTAVYYCAAAPYGCSHYRDEYAYWGQGTQVTVSS,fold KD improvement over 4NBX.B-biotin103 WT,[12],~2 fold
same,Kd,[13],0.9 nM
same,Kd,[14],0.76 nM
same,koff,[14],0.00186 s⁻¹
same,kon,[14],2.45e+06 M⁻¹ s⁻¹
same,Kd,[15],1.11 nM
same,koff,[15],0.00213 s⁻¹
same,kon,[15],1.93e+06 M⁻¹ s⁻¹
same,Kd,[16],0.78 nM
same,koff,[16],0.00177 s⁻¹
same,kon,[16],2.3e+06 M⁻¹ s⁻¹
4NBX.B-biotin103 v149 (VHH) VHH: QVQLQESGGGLAQAGGSLRLSCAASGRTFSRSPMAWFRQPPGKEREFVAAGSSTGRTTYYADSVKGRFTISRDNAKNTVYLQMNSLKPEDTAVYYCAAAPYGCARYRDEYAYWGQGTQVTVSS,fold KD improvement over biotin/mSAWT,[12],> 20 fold
same,fold faster kon compared to v119,[12],~4 fold
same,koff ratio relative to v119,[12],~0.2 fold
same,Kd,[17],0.12 nM
same,Kd,[18],0.11 nM
same,koff,[18],0.00106 s⁻¹
same,kon,[18],9.78e+06 M⁻¹ s⁻¹
same,Kd,[19],0.14 nM
same,koff,[19],0.00081 s⁻¹
same,kon,[19],5.84e+06 M⁻¹ s⁻¹
same,Kd,[20],0.11 nM
same,koff,[20],0.000923 s⁻¹
same,kon,[20],8.7e+06 M⁻¹ s⁻¹
"4NBX.B-biotin103 v186_Fr (VHH, also called wildtype v186_Fr) VHH: QVQLQESGGGLVQAGGSLRLSCAASGRTFSRSPMAWYRQPPGKEREFVAAGSSTGTTTYYADSVKGRFTISRDNAKNTVYLQMNSLKPEDTAVYYCAAAPLGCARKFAESAYWGQGTQVTVSS",Kd,[12],0.2 nM
same,fold KD improvement over biotin/mSAWT,[12],> 20 fold
same,Kd,[2],54 nM
same,fold KD improvement (over biotin/mSAS27A),[2],~20 fold
same,Kd,[21],0.16 nM
same,koff,[21],0.00079 s⁻¹
same,kon,[21],5.04e+06 M⁻¹ s⁻¹
same,Kd,[22],0.21 nM
same,koff,[22],0.00089 s⁻¹
same,kon,[22],4.26e+06 M⁻¹ s⁻¹
same,Kd,[23],0.23 nM
same,koff,[23],0.0011 s⁻¹
same,kon,[23],4.79e+06 M⁻¹ s⁻¹
same,Kd,[24],49.6 nM
same,koff,[24],0.0912 s⁻¹
same,kon,[24],1.84e+06 M⁻¹ s⁻¹
same,Kd,[25],56.3 nM
same,koff,[25],0.0879 s⁻¹
same,kon,[25],1.56e+06 M⁻¹ s⁻¹
same,Kd,[26],55.5 nM
same,koff,[26],0.0872 s⁻¹
same,kon,[26],1.57e+06 M⁻¹ s⁻¹
"2X89.A-CCAA-biotin57 (VHH, also called parent conjugate) VHH: QVQLQESGGGSVQAGGSLRLSCAASGYTDSRYAMAWFRQAPGKEREWVARINSGRDCTYYADSVKGRFTFSQDNAKNTVYLQMDSLEPEDTATYYCATDIPLRARDIVAKGGDGFRYWGQGTQVTVSS",Kd,[12],0.8 nM
same,Kd,[27],0.82 nM
same,koff,[27],0.000771 s⁻¹
same,kon,[27],940000 M⁻¹ s⁻¹
same,Kd,[28],1.01 nM
same,koff,[28],0.000718 s⁻¹
same,Kd,[29],0.54 nM
same,koff,[29],0.000555 s⁻¹
same,kon,[29],1.03e+06 M⁻¹ s⁻¹
same,kon,[30],710000 M⁻¹ s⁻¹
